B1: HRI-ΔN-ΔpCC (Δ1-143, Δ620-630), untreated (phosphorylated as purified) (domain or fragment, human, UniProt Q9BQI3 144-619, looked up)
chain: SRIQKIRSREVALEAQTSRYLNEFEELAILGKGGYGRVYKVRNKLDGQYYAIKKILIKGATKTVCMKVLREVKVLAGLQHPNIVGYHTAWIEHVHVIQPRADRAAIELPSLEVLSDQEEDREQCGVKNDESSSSSIIFAEPTPEKEKRFGESDTENQNNKSVKYTTNLVIRESGELESTLELQENGLAGLSASSIVEQQLPLRRNSHLEESFTSTEESSEENVNFLGQTEAQYHLMLHIQMQLCELSLWDWIVERNKRGREYVDESACPYVMANVATKIFQELVEGVFYIHNMGIVHRDLKPRNIFLHGPDQQVKIGDFGLACTDILQKNTDWTNRNGKRTPTHTSRVGTCLYASPEQLEGSEYDAKSDMYSLGVVLLELFQPFGTEMERAEVLTGLRTGQLPESLRKRCPVQAKYIQHLTRRNSSQRPSAIQLLQSELFQNSGNVNLTLQMKIIEQEKEIAELKKQLNLLSQDKG
modifications: autophosphorylated as purified from E. coli (sites not given)
notes: The limits 144-619 follow from the printed deletions Δ1-143 and Δ620-630; also called His-HRI-ΔN-ΔpCC; untreated HRI-ΔN-ΔpCC
B2: HRI-ΔN-ΔpCC (Δ1-143, Δ620-630), dephosphorylated with lambda phosphatase (domain or fragment, human, UniProt Q9BQI3 144-619, looked up)
chain: B1 chain
notes: Human HRI, UniProt Q9BQI3, residues 144-619 (Δ1-143, Δ620-630); phosphate groups removed with lambda phosphatase; The limits 144-619 follow from the printed deletions Δ1-143 and Δ620-630; also called dephosphorylated HRI-ΔN-ΔpCC; source: E. coli BL21-Rosetta(DE3), purified, incubated with lambda phosphatase, then Superdex 200

Tests used:
[1] = molecular target: T1, heme-regulated inhibitor (HRI) (Homo sapiens, UniProt Q9BQI3); assay: γ[…] ATP filter-paper kinase assay with eIF2α peptide; supported by DSF (~[…] °C shift) and DSC stabilization; format: biochemical
T1 construct: gene EIF2AK1; HRI-FL (full-length)
T1 sequence (Q9BQI3 whole entry): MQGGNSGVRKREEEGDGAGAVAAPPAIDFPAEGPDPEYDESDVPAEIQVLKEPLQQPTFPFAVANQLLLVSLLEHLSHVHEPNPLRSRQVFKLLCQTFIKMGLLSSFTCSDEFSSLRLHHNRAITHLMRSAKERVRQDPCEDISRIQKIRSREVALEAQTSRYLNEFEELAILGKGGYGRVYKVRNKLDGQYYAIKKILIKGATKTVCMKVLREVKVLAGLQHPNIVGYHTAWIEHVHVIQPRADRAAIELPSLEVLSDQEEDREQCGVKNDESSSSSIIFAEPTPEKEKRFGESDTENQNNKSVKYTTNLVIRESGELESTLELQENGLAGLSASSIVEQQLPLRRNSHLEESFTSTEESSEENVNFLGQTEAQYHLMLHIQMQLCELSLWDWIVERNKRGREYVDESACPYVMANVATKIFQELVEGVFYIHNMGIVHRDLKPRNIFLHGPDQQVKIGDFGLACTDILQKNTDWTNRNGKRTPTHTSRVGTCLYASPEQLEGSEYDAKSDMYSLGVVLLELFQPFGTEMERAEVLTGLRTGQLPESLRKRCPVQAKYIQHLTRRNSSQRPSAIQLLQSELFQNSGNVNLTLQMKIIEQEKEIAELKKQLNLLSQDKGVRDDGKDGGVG

[2] = molecular target: the molecule itself; assay: AUC; sedimentation velocity; samples at an absorbance of 0.5 at 280 nm, 20 °C, 42,000 rpm, c(s) distribution model in SEDFIT; self-association (oligomeric state from fit MW)

Molecule | IC50 [1] [µM] | stoichiometry N [2]
O=c1c(O)c(-c2ccc(O)c(O)c2)oc2cc(O)cc(O)c12 [quercetin] | 1.52 | 
B1 |  | 2
B2 |  | 2
